This is an account of results in patent publication US20210371524A1 (VOR BIOPHARMA, published 2021).

Assay [1] has as its target human CD45 on human cells (PBMC, CD34+CD90+ bone marrow HSCs, cells expressing CD45) (human), P08575. Kind of assay: cell-based or functional assay.
For assay [2], the target named is T1, Rhesus CD45RABC (rhesus, UniProt A0A1D5R142 26-1310).
T1 sequence: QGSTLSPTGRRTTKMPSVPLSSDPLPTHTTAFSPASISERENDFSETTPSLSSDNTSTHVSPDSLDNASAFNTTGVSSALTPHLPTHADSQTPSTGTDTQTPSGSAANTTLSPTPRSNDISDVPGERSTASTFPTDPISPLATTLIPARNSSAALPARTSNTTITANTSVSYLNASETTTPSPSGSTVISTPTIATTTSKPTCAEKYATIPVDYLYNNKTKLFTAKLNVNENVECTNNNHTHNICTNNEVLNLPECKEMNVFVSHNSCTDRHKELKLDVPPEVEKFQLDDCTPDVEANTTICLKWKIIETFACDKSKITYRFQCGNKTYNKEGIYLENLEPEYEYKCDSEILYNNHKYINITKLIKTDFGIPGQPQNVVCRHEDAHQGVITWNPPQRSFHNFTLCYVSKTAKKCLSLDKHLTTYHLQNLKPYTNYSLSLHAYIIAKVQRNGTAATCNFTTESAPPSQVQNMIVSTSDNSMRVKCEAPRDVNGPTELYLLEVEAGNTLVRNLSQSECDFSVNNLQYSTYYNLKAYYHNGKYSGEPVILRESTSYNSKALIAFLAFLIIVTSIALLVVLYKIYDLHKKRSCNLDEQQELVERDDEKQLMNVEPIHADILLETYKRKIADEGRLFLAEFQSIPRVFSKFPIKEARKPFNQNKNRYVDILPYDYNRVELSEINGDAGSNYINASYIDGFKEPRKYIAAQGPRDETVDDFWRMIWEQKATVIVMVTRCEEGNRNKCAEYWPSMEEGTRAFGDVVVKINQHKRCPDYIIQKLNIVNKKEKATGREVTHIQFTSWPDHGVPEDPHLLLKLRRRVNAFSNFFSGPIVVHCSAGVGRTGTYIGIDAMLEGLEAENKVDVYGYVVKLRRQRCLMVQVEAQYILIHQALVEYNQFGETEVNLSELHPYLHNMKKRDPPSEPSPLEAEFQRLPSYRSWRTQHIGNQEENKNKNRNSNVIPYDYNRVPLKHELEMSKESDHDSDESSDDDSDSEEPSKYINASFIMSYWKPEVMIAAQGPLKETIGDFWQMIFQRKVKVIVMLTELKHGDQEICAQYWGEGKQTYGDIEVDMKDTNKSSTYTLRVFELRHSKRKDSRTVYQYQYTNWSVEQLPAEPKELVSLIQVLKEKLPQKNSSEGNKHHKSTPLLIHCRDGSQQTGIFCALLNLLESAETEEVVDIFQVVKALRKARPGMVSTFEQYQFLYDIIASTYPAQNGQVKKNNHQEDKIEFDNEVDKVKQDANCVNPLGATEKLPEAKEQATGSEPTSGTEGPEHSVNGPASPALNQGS
Put plainly: Octet (BLI), monovalent binding; KD on rhesus against KD on human CD45 RABC.

For assay [3], the target named is T2, cynomolgus CD45 RABC (cynomolgus, UniProt A0A2K5VQ76 26-1301).
T2 construct: also called cyno CD45RABC; cyno RABC
T2 sequence: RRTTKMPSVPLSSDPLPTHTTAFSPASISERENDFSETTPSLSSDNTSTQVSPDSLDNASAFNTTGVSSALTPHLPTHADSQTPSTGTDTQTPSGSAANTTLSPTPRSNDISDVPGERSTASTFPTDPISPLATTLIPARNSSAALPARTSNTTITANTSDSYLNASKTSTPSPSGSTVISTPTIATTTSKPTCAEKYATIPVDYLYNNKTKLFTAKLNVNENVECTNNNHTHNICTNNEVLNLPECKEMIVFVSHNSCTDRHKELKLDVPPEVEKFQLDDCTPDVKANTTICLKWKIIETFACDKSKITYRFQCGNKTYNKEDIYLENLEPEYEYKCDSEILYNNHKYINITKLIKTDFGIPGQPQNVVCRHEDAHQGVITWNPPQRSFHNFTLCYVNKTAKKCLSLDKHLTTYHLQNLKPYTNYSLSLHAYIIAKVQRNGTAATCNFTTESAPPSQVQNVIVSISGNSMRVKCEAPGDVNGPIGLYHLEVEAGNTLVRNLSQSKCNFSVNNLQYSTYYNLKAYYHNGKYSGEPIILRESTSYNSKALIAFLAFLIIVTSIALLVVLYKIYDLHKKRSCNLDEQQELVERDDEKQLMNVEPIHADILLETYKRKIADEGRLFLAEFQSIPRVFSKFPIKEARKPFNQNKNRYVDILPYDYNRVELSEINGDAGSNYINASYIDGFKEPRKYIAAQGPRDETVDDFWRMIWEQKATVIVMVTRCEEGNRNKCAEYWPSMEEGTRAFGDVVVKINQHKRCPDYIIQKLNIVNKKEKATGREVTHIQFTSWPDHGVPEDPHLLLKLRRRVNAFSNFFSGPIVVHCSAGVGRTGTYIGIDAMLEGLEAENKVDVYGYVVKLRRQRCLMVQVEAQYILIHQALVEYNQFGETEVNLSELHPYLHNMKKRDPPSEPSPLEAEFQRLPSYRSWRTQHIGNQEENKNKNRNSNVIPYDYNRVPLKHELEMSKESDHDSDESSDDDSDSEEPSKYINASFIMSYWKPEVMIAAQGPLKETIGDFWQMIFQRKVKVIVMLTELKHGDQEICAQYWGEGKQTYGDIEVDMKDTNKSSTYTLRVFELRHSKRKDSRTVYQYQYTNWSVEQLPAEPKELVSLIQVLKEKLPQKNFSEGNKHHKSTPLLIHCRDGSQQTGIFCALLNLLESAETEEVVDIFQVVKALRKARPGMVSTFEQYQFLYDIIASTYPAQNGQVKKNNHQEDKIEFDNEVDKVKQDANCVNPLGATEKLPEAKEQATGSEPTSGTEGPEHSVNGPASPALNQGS
Put plainly: Octet (BLI), monovalent binding; KD on cyno against KD on human CD45 RABC.

The target of assay [4] is T1, Rhesus CD45RABC. Kind of assay: Octet (BLI), monovalent binding.
Assay [5] has as its target T3, Human CD45RABC Antigen (Fragment of Human CD45RABC Isoform) (human, UniProt P08575 26-577).
T3 sequence: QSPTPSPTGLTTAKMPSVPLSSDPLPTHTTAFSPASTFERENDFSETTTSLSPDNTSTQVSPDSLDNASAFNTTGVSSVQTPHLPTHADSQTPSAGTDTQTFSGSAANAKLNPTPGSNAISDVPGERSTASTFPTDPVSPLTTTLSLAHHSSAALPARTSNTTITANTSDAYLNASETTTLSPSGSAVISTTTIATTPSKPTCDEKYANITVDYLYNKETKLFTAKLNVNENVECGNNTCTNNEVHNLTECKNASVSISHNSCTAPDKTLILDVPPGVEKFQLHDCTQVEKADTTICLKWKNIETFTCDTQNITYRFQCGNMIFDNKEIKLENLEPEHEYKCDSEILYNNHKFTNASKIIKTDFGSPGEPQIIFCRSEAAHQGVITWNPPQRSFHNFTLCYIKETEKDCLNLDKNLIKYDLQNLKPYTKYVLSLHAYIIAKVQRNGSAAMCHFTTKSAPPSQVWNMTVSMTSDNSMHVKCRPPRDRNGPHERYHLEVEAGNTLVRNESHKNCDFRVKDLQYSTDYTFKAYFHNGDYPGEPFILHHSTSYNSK
Put plainly: Octet (BLI), monovalent binding.

Assay [6] concerns the target T2, cynomolgus CD45 RABC. Kind of assay: Octet (BLI), monovalent binding.

Positions count from the first letter of the chain named.

B1: CD45-AM (chimeric AbA as IgG1 conjugated to amatoxin), Example 2 (antibody, V domains shown)
VH: EVQLVESGGDRVQPGRSLTLSCVTSGFTFNNYWMTWIRQVPGKGLEWVASISSSGGSIYYPDSVKGRFTISRDNAKNTLYLQMNSLRSEDTATYYCARDERWAGAMDAWGQGTSVTVSS
VL: DIQMTQSPPVLSASVGDRVTLSCKASQNINKNLDWYQQKHGEAPKLLIYETNNLQTGIPSRFSGSGSGTDYTLTISSLQPEDVATYYCYQHNSRFTFGSGTKLEIK
modifications: here or on the partner: amatoxin (AM) payload conjugated to the antibody; site and drug to antibody ratio not stated in Example 2
In assay [1], B1 showed an in vitro killing of PBMC immune cells (IC50) of 0.055 nM and an in vitro killing of primary human bone marrow CD34+CD90+ HSCs (IC50) of 0.067 nM.

B2: AbA chimera (chimeric Antibody A, human IgG1) (antibody, V domains shown)
VH: B1 VH
VL: B1 VL
notes: also called chimeric AbA
In the case of B2, the “Fold Rhesus to Hu” value in the assay with Rhesus CD45RABC [2] stood at 5 fold. Also, the “Fold cyno to Hu” value in the assay with cynomolgus CD45 RABC [3] was determined as 4 fold. The Kd in the assay with Rhesus CD45RABC [4] is 12.3 nM; in assay [5] it was 2.34 nM; with cynomolgus CD45 RABC [6], 9.33 nM.

B3: CD45-AM (antibody AbB-amatoxin), Example 4 (antibody, V domains shown)
VH: EVQLVESGGDLVQPGRSLKLSCIASGFTFTNFWMTWIRQVSGKGLEWVASISSSGGSIYYPDSVKDRFTISRDNAKNTLYLQMNSLRSEDTATYYCVKLHYYSGGGDAWGQGTSVTVSS
VL: DIQMTQSPSFLSASVGDRVTINCKASQNINKYLDWYQQKHGEAPKLLIHYTNNLHTGIPSRFSGSGSGTDYTLTISSLQPEDVATYFCLQHSSRWTFGGGTKLELK
modifications: here or on the partner: amanitin conjugated (interchain), drug to antibody ratio (DAR) 4
Turning to B3, in assay [1], the in vitro killing of human PBMCs, 4 days, Celltiter Glo stood at 614 pM and the in vitro killing of primary human CD34+CD90+ HSCs, 5 days, flow cytometry counts is 68 pM.

B4: AbC chimera (chimeric Antibody C, human IgG1) (antibody, V domains shown)
VH: B3 VH with I23V, T30N, F32Y, S41P, Y80F, V97A, K98R, H100Y
VL: B3 VL with N22I, N28D, H40L, H49Y, Y50N, S92I
notes: also called chimeric AbC
Turning to B4, in the assay with Rhesus CD45RABC [2], the “Fold Rhesus to Hu” value was determined as 8 fold. Besides, the “Fold cyno to Hu” value with cynomolgus CD45 RABC [3] was found to be 8 fold. Further, the Kd with Rhesus CD45RABC [4] worked out at 63.5 nM; in assay [5], 7.54 nM; in the assay with cynomolgus CD45 RABC [6], 62.2 nM.

B5: AbB chimera (chimeric Antibody B, human IgG1) (antibody, V domains shown)
VH: B3 VH
VL: B3 VL
notes: also called chimeric AbB
On to B5, for which the “Fold Rhesus to Hu” value in the assay with Rhesus CD45RABC [2] turned out to be 6 fold. Besides, the “Fold cyno to Hu” value with cynomolgus CD45 RABC [3] was 5 fold. Moreover, the Kd was 15.8 nM in the assay with Rhesus CD45RABC [4], 2.84 nM in assay [5] and 14.5 nM in the assay with cynomolgus CD45 RABC [6].
